Laboratory results reported in patent US20170088634A1, “TREATMENT OF NEUROTRAUMA USING ANTIBODIES TO LYSOPHOSPHATIDIC ACID” (priority 2012, published 2017).
Where two headings read alike, the source gives them in different places. Marks after values point to notes of the source that are not given here. Each block holds one molecule with its values, some of them ahead of it.

Key:
hNS/PC neurospheres [1] = assay: Neuronal differentiation of plated neurospheres (neuron-forming neurospheres); assay type: cell-based, human
Method: (§1) Neurospheres were used to model the role of LPA in neuronal differentiation as described in commonly-owned U.S. patent application publication no. US20110076269 and U.S. Pat. No. 8,604,172. […] LPA also interferes with an additional differentiation step, namely, the differentiation of NSC toward mature cells.
Using the same conditions used in Example 2, above, for LPA treatment alone, plated neurospheres were treated with 10 μM LPA alone, or with anti-LPA antibody B3 or B7 (1 mg/ml) alone, or with 10 μM LPA in combination with 1 mg/ml of antibody B3 or B7. Similarly, cells were treated with 10 μM LPA alone, humanized anti-LPA antibody LT3015 alone (1 mg/ml), or with 10 μM LPA in combination with 1 mg/ml LT3015. The percent of neuron-forming neurospheres was quantitated as in Example 2 (beta-tubulin staining and quantification of neuron-forming spheres, as described in Dottori, et al (2008)). […] Neurosphere samples treated with B3 antibody alone had neuron-forming neurospheres equivalent to control (100%). […] The antibody B7, under similar conditions, had little to no effect in this experiment (37.00±5.31% of control).
Using the conditions described in the Example above, […] were plated onto laminin for neuronal differentiation in NBM medium (3 days), with or without LPA (10 μM), with or without antibody to LPA at 1 mg/ml (B3, B7, or the humanized antibody LT3015, tested singly with or without LPA).

hNS/PC neurospheres [2] = assay: Neurosphere formation; assay type: cell-based, human; settings: LPA 10 uM
Text: as §1
Anti-LPA antibodies have been found by the inventors to block LPA inhibition of neurosphere formation, as described in commonly-owned U.S. patent application publication no. US20110076269 and U.S. Pat. No. 8,604,172.

adult mouse NSC = assay: Neuronal differentiation of adult mouse NSC; assay type: cell-based
Text: However, and similarly to data obtained in human NSC, LPA inhibited the neuronal differentiation of adult mouse NSC by maintaining them as NSC when plated in conditions normally inducing neuronal differentiation. […] These effects were independent of apoptosis or proliferation.

[3] = Competition ELISA, competitor lipid 18:2 LPA; assay type: binding; settings: maximum inhibition
Text: (§2) Although polyclonal antibodies against naturally-occurring LPA have been reported in the literature (Chen, et al., Bioorg Med Chem Lett. 2000 Aug. 7; 10(15):1691-3), monoclonal antibodies to LPA had not been described until Sabbadini, et al., U.S. patent application publication no. 20080145360, and U.S. Pat. No. 8,158,124, both of which are commonly owned herewith. The former publication describes the production and characterization of a series of murine monoclonal antibodies against LPA and the latter describes, among other things, a humanized monoclonal antibody against LPA. IC50: Half maximum inhibition concentration; MI: Maximum inhibition (% of binding in the absence of inhibitor); ---: not estimated because of weak inhibition. A high inhibition result indicates recognition of the competitor lipid by the antibody.

SKOV3 cell invasion = assay: Invasion assay, SKOV3 cells triggered by LPA; assay type: cell-based; parameters: dose or concentration left out as unconfirmed; settings: Lpathomab 14:0 LPA, SKOV3, n = 2
[4] = Competition ELISA specificity, competitor lipid DSPA (distearoyl PA); assay type: binding; settings: n = 3
Method: (§3) The specificity of the anti-LPA mAbs was assessed for their binding to LPA-related biolipids such as distearoyl-phosphatidic acid, lysophosphatidylcholine, SIP, ceramide, and ceramide-1-phosphate.

Solubility of antibody = assay type: physicochemical; settings: 6.6 mM phosphate, 154 mM sodium chloride, pH 7.4
[5] = Specificity / cross-reactivity profile; assay type: binding
human IL-8 = assay: LPA-induced IL-8 release in SKOV3 conditioned media; assay type: cell-based; parameters: dose or concentration left out as unconfirmed; settings: Lpathomab 18:1 LPA, SKOV3, n = 3
[6] = Competition ELISA, competitor lipid 20:4 LPA; assay type: binding; settings: maximum inhibition
Text: as §2

[7] = cited from earlier work
[8] = Competition ELISA specificity, competitor lipid C1P; assay type: binding; settings: n = 3
interleukin-8 (IL-8) = assay: IL-8 release from ovarian cancer cells; assay type: cell-based
Text: Five humanized variants were further assessed in in vitro cell assays. LPA is important in eliciting release of interleukin-8 (IL-8) from cancer cells.

[9] = Competition ELISA, competitor lipid 18:1 LPA; assay type: binding; settings: maximum inhibition
Text: as §2

[10] = Specificity of LT3000 against other lipids and proteins; assay type: binding; settings: over 100 different bioactive lipids and proteins, including over 20 bioactive lipids
Text: (§4) The murine antibody is a full-length IgG1 k isotype antibody composed of two identical light chains and two identical heavy chains with a total molecular weight of 155.5 kDa.

[11] = Competition ELISA specificity, competitor lipid S1P; assay type: binding; settings: n = 3
[12] = Surface plasmon resonance (BiaCore) and direct binding ELISA of LT3000; settings: Table 12
Text: as §4

[13] = Competition ELISA, competitor lipid 16:0 LPA; assay type: binding; settings: maximum inhibition
Text: as §2

SKOV3 cells = assay: Apoptosis: Taxol induced caspase-3 activation in SKOV3 cells, LPA protection; assay type: cell-based; settings: Lpathomab, 1 mM Taxol, 1 mM 18:1 LPA, SKOV3, n = 1
[14] = Competition ELISA specificity, competitor lipid LPC; assay type: binding; settings: n = 3
Method: as §3

SKOV3 cell migration = assay: Migration assay, SKOV3 cells triggered by LPA; assay type: cell-based; settings: Lpathomab, 1 mM 18:1 LPA, SKOV3, n = 3
[15] = cited from earlier work; remark: listed apart in the source
[16] = Binding affinity of humanized, chimeric and murine anti-LPA antibodies
Apparent Tm of antibody = assay type: physicochemical; settings: pH7.4
[17] = Competition ELISA, competitor lipid 14:0 LPA; assay type: binding; settings: maximum inhibition
Text: as §2

[18] = cited from earlier work; remark: listed apart in the source
[19] = cited from earlier work; remark: listed apart in the source
human IL-6 = assay: LPA-induced IL-6 release in SKOV3 conditioned media; assay type: cell-based; settings: Lpathomab 300-600 mg/mL, 1 mM 18:1 LPA, SKOV3, n = 3
[20] = Competition ELISA specificity, competitor lipid Cer; assay type: binding; settings: n = 3
[21] = cited from earlier work; remark: listed apart in the source

Molecule: lysophosphatidic acid [LPA]
decrease in neuron-forming spheres (hNS/PC neurospheres [1]; 10 uM LPA): ~80%
neuron-forming spheres, LPA alone (Example 4) (hNS/PC neurospheres [1]; 10 μM LPA, 3 days): approximately 26 % of control
neurosphere formation, LPA (hNS/PC neurospheres [2]): inhibited
neurosphere formation or growth of mouse NSC (adult mouse NSC): did not modify
βIII-tubulin expression (differentiated neurons) (adult mouse NSC; LPA (10 NM), three days, untreated 57.12±18.42%): 26.25±2.08 % of total cells
nestin positive (undifferentiated NSCs) (adult mouse NSC; LPA (10 NM), three days, untreated 58.01±6.20): 87.55±3.20 % of total cells

binding affinity for other bioactive lipids and proteins (specificity) [10]: no binding affinity
Kd [12]: 0.001 to 0.05 nM
binding affinity for LPA (in words) [16]: low picomolar range
B1: B7: murine anti-LPA monoclonal antibody, full-length IgG1k; VH SEQ ID NO: 3, VL SEQ ID NO: 4 (antibody, V domains shown)
VH: QVQLQQSGAELVRPGTSVKVSCKASGYGFINYLIEWIKQRPGQGLEWIGLINPGSDYTNYNENFKGKATLTADKSSSTAYMHLSSLTSEDSAVYFCARRFGYYGSGNYFDYWGQGTTLTVSS
VL: DVVMTQTPLSLPVSLGDQASISCTSGQSLVHINGNTYLHWYLQKPGQSPKLLIYKVSNLFSGVPDRFSGSGSGTDFTLKISRVEAEDLGVYFCSQSTHFPFTFGTGTKLEIK
MI, competitor lipid 18:2 LPA [3]: 100%
Invasion % Inhibition (over LPA taken as 100) (SKOV3 cell invasion): 95* %
neuron-forming neurospheres, LPA plus antibody (pool of data) (hNS/PC neurospheres [1]; 10 μM LPA in combination with 1 mg/ml antibody): 37.00±5.31 % of control
number of neurons in neurospheres (comparison between antibodies) (hNS/PC neurospheres [1]; 10 μM LPA plus antibody 1 mg/ml): lesser number of neurons
neuron-forming neurospheres, LPA plus antibody (Example 4) (hNS/PC neurospheres [1]; 10 μM LPA, antibody 1 mg/ml, 3 days on laminin in NBM medium): 50 % of control
MI, competitor lipid DSPA [4]: 0%
Solubility (Solubility of antibody): >40 mg/mL in 6.6 mM phosphate,
cross-reactivity to LPC, PA, 14:0 and 18:1 LPA, cPA, PC [5]: no cross-reactivity
IL-8 Release % Inhibition (over LPA taken as 100) (human IL-8): 20%
MI, competitor lipid 20:4 LPA [6]: 67%
IC50 ([7]; competition ELISA, half maximum inhibition concentration, read-out: 14:0 LPA IC50): 105 nM
14:0 LPA MI ([7]; maximum inhibition (% of binding in the absence of inhibitor)): 61.3%
MI, competitor lipid C1P [8]: 1.0%
IL-8 release from ovarian cancer cells (interleukin-8 (IL-8)): reduced IL-8 release
MI, competitor lipid 18:1 LPA [9]: 100%
MI, competitor lipid S1P [11]: 2.7%
MI, competitor lipid 16:0 LPA [13]: 62.9%
Apoptosis % Induction (over LPA + TAXOL taken as 100) (SKOV3 cells): 79%
MI, competitor lipid LPC [14]: 0%
Migration % Inhibition (over LPA taken as 100) (SKOV3 cell migration): 35* %
IC50 ([15]; competition ELISA, read-out: 20:4 LPA IC50): 161 nM
20:4 LPA MI ([15]; maximum inhibition): 67%
Apparent Tm (Apparent Tm of antibody): 67 °C at pH7.4
MI, competitor lipid 14:0 LPA [17]: 61.3%
IC50 ([18]; competition ELISA, read-out: 18:2 LPA IC50): 1490 nM
18:2 LPA MI ([18]; maximum inhibition): 100%
IC50 ([19]; competition ELISA, read-out: 18:1 LPA IC50): > 2000 nM
18:1 LPA MI ([19]; maximum inhibition): 100%
IL-6 Release % Inhibition (over LPA taken as 100) (human IL-6): 23* %
MI, competitor lipid Cer [20]: 1%
IC50 ([21]; competition ELISA, read-out: 16:0 LPA IC50): 483 nM
16:0 LPA MI ([21]; maximum inhibition): 62.9%
